Source: PMC2903434

Target: PAK1 kinase domain (K298R mutant), residues 250-545 from PAK-fl (UniProt Q13153)

Kd: 4 µM
Substance: truncated autoinhibitory domain (trunc-AID, residues 83-137) from PAK1 (from UniProt Q13153 83-137) (domain or fragment)
